Test results as given in paper PMC8317047, “Characterisation of a hyperthermophilic transketolase from Thermotoga maritima DSM3109 as a biocatalyst for 7-keto-octuronic acid synthesis” (Organic & Biomolecular Chemistry, 2021).

Tests used:
purified protein [1] = substrate: O=C(O)C(=O)CO; test: purified protein; conditions: apparent, GA constant at 50 mM, ThDP 2.4 mM, MgCl2 9 mM, TEA 2 mM pH 7, 65 °C
purified protein [2] = substrate: O=CCO; test: purified protein; type: biochemical, Thermotoga maritima; conditions: apparent, LiHPA constant at 50 mM, ThDP 2.4 mM, MgCl2 9 mM, TEA 2 mM pH 7, 65 °C

B1: TKtmar (Thermotoga maritima MSB8) (protein)
chain: MERFPYEKLPESELKELKELGRLCRGDILKMTYIANSGHPGGSMSSIDLYLTVFKYAKLRPVDDPARDRIVISHGHTSPGVYAAMARLGFVDLDEVLAGFRHPASVFEGHVTRGVGIIDWTTGNLGQGLSAGLGFALASRFTGKDYHVFVLMSDAEQAKGQVAEARRVAKKYGVTNLTVIIDYNDAQISGRARDVMPVNIKENYLADGWRVIEIDGHDYEQIYLALKEAVEDELNPVAIIAKTVMGKGVSFMENEVKYHGKPLNREELEKALAELGIENDVDVYIEKRKQLPVEKHKKVYKTYPIKIDTGEPITYTSPTDNRSAFGKAILDLVKKNVNNPETTPIVAVDCDLKGSVKLDLLDKEFPERLLEVGVQEHNAAAMAGALSAEGVITFFADFGVFGISETYNQHRLNAINGTNLKVVVTHCGLNVGEDGKTHHGLDYVSGPMNWYGFKVIVPGDPNQTDRVVRYAAKEYGNFVIAMGRSKLPIILDENGKPFFGEGYTFEYGKIDVVRKGDDAVIITYGSTLCEAVNAADELKKEGVNVAVLNVSCPVDLDIETLKMVDGKPVLVVEDHNVFTGLGSFLGTTLLENGIIPKKYVRVGVPEFAVSGSYTMLYKLYGLDKDGIISRLREML
notes: full length with C-terminal His6 tag, pET-29:SacB-SapI, E. coli BL21(DE3), Ni-NTA purified
Purified protein [1]
  Km: 53.8 ± 4.1 mM
  Vmax: 330 µM/min
  kcat: 0.77 s⁻¹
  kcat/Km: 14.4 M⁻¹ s⁻¹
Purified protein [2]
  Km: 3.6 ± 0.4 mM
  Vmax: 190 µM/min
  kcat: 0.45 ± 0.03 s⁻¹
  kcat/Km: 126 ± 6 M⁻¹ s⁻¹
